Drawing on publication PMC6437208, this text covers ThT assay: reduction of tau50 of R5 fibril formation in the presence of CB-origami for one substance.

In the test the target is CsgB-His (curli nucleator CsgB with C-terminal poly-histidine tag) (E. coli) (UniProt P0ABK7).
Chain of UniProt P0ABK7 (P0ABK7 22-151): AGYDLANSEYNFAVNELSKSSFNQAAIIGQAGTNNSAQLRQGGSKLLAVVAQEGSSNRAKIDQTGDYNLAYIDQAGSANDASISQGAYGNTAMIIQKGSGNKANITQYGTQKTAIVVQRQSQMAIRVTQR

For the substance CsgA R5 subunit domain peptide, the ThT assay: reduction of tau50 of R5 fibril formation in the presence of CB-origami was 1.5 h.
